Molecular target: T1, flag-RARα (mRARα);myc-RXRα (mRXRα) (Mus musculus;Mus musculus, UniProt P11416;P28700 1-462;1-467, |)
T1 sequence 1: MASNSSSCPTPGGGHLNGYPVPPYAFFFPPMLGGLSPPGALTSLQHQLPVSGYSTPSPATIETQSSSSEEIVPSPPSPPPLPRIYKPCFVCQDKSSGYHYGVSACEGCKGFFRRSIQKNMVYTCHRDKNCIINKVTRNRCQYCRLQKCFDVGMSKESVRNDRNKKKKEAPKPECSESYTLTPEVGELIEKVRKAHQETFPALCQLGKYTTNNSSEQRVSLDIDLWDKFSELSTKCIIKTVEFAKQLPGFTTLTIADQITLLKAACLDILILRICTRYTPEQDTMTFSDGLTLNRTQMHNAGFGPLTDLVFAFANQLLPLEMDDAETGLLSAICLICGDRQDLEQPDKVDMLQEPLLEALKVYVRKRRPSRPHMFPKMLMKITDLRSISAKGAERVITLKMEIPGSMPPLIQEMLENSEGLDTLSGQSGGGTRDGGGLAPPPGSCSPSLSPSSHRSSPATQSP
T1 sequence 2: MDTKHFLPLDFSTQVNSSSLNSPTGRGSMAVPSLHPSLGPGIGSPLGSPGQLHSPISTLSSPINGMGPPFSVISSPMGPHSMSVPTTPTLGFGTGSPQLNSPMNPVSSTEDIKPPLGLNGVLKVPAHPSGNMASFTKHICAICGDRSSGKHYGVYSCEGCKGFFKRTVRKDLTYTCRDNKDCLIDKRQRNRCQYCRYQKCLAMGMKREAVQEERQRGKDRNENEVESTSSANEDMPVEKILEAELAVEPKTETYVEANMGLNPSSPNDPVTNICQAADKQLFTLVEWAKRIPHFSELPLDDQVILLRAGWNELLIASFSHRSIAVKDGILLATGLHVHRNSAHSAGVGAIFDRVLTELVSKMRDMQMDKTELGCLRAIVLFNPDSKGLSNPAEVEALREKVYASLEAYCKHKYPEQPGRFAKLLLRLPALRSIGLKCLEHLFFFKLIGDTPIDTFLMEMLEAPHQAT
Assay: EMSA; EMSA essentially as Forman et al. 1992 and Shtutman et al. 1999; buffer, salt, pH and temperature not stated
Settings: protein: ivt;ivt; tags: N-terminal flag;N-terminal myc; copies: 1;1; blunt (complement S6 printed; duplex implied)

B1: RARE3 mut (dsDNA)
DNA 1: CCGGCAGCTGCGATGACTGCTCCCTCCTTA
DNA 2: TAAGGAGGGAGCAGTCATCGCAGCTGCCGG
Q: Does B1 bind?
A: no binding
